In one data set the target is GST-OST1/SnRK2.6 (UniProt Q940H6).
Data set [1] deals with T1, dephosphorylated recombinant His-OST1/SnRK2.6 (UniProt Q940H6).
T1 sequence: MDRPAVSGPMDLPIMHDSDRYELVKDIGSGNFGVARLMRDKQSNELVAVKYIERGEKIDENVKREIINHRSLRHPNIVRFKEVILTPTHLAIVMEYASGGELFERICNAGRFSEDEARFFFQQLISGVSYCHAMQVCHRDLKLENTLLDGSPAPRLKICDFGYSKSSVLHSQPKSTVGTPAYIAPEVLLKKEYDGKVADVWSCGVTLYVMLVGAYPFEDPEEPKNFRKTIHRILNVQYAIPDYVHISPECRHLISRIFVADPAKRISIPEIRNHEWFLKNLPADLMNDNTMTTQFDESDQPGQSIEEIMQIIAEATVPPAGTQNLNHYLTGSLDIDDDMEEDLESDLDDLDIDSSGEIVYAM

The target in a further data set is T2, GST-SnRK2.2 (UniProt Q39192).
T2 sequence: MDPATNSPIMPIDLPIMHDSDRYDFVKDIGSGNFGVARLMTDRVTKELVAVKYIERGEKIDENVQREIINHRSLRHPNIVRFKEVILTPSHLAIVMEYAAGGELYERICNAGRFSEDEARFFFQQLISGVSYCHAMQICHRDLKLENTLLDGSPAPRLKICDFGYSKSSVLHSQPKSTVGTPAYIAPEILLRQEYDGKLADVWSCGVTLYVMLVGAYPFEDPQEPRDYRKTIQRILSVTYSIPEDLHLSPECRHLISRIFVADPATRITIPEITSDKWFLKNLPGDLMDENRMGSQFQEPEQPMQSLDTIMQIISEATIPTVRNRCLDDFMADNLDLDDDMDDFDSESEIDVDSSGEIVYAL

The next data set concerns the target T3, GST-SnRK2.4 (UniProt P43291).
T3 sequence: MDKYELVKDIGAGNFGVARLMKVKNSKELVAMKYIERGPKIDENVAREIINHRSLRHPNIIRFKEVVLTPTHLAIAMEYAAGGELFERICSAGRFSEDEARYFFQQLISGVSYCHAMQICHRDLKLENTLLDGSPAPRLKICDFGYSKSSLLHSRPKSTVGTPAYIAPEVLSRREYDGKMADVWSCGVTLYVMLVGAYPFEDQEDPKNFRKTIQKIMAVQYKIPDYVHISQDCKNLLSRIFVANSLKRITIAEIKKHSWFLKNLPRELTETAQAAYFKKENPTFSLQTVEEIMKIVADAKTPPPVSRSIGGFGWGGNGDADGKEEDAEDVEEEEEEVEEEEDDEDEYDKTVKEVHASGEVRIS

The target of the next data set is GST-OST1/SnRK2.6 (D140A) (UniProt Q940H6).
Another data set concerns the target T4, GST-SnRK2.3 (UniProt Q39193).
T4 sequence: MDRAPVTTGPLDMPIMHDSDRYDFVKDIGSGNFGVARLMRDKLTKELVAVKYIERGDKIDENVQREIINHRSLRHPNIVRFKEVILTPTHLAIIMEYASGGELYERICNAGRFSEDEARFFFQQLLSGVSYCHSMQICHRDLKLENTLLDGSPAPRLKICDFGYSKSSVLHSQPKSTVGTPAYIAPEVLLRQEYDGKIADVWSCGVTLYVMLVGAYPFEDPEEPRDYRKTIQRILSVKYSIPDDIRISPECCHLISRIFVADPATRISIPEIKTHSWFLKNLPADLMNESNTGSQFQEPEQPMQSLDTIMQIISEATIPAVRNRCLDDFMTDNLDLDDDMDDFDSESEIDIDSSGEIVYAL

Sequence of CPK23 (chain, as listed by the source): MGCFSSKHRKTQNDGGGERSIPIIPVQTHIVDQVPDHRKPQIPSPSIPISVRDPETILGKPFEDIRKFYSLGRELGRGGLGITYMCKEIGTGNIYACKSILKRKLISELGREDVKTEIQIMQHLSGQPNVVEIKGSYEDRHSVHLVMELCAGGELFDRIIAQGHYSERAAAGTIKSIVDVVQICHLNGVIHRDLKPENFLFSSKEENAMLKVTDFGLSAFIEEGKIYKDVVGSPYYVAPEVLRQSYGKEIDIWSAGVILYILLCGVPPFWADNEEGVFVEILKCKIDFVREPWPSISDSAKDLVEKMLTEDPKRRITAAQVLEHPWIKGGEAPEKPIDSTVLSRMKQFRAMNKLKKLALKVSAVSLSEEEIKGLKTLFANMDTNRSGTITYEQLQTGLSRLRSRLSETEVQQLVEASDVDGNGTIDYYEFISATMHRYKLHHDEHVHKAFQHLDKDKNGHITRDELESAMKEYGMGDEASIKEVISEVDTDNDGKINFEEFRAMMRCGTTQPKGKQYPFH

Take CPK6: the “in vitro phosphorylation assay with 32P-ATP after dephosphorylation of OST1” value in the data set with GST-OST1/SnRK2.6 was “did not phosphorylate OST1/SnRK2.6 after dephosphorylation”.

Take CPK23: in the data set with GST-OST1/SnRK2.6, the “in vitro phosphorylation assay with 32P-ATP after dephosphorylation of OST1” value is given as “did not phosphorylate OST1/SnRK2.6 after dephosphorylation”.

For GST-M3Kδ1 kinase domain, the “OST1/SnRK2.6 activity, in-gel kinase assay in vitro” value (from here on “OST1/SnRK2.6 activity”) in data set [1] was “three M3Ks from the subgroup B3, named M3Kδ1, 66 and 67, were found to strongly activate OST1/SnRK2.6”; in the data set with GST-OST1/SnRK2.6, “the truncated kinase domain (M3Kδ1_KD) has a higher activity than the full length M3Kδ1 protein (M3Kδ1_Full)”. Moreover, the “SnRK2 kinase activity, in-gel kinase assay in vitro” value (“SnRK2 kinase activity” below) in the data set with GST-SnRK2.2 was “M3Kδ1 strongly activated SnRK2.2 and 2.3”; with GST-SnRK2.4 it was “M3Kδ1 also activated SnRK2.4 kinase in vitro”; in the data set with GST-SnRK2.3, “M3Kδ1 strongly activated SnRK2.2 and 2.3”. Also, the “in vitro phosphorylation assay with 32P-ATP” value with GST-OST1/SnRK2.6 (D140A) was “the M3Kδ1, 66 and 67 kinase domains directly phosphorylated the kinase inactive OST1/SnRK2.6 (D140A) mutant isoform”. For the same substance, the “phosphorylation sites by LC-MS/MS after in vitro phosphorylation” value in the data set with GST-OST1/SnRK2.6 (D140A) is “M3Kδ1 phosphorylated the OST1/SnRK2.6 residues Ser171, Ser175 and Thr176 in the OST1 activation loop”.

Regarding GST-M3Kδ6 kinase domain, the “OST1/SnRK2.6 activity” value in data set [1] was “three M3Ks from the subgroup B3, named M3Kδ1, 66 and 67, were found to strongly activate OST1/SnRK2.6”. Also, the “in vitro phosphorylation assay with 32P-ATP” value with GST-OST1/SnRK2.6 (D140A) is “the M3Kδ1, 66 and 67 kinase domains directly phosphorylated the kinase inactive OST1/SnRK2.6 (D140A) mutant isoform”. Also, the “SnRK2 kinase activity” value in the data set with GST-SnRK2.3 is “SnRK2.3 was also activated by M3Kδ6 and M3Kδ7”.

GST-M3Kδ7 kinase domain: in data set [1], the “OST1/SnRK2.6 activity” value is “three M3Ks from the subgroup B3, named M3Kδ1, 66 and 67, were found to strongly activate OST1/SnRK2.6”. For the same substance, the “in vitro phosphorylation assay with 32P-ATP” value with GST-OST1/SnRK2.6 (D140A) is “the M3Kδ1, 66 and 67 kinase domains directly phosphorylated the kinase inactive OST1/SnRK2.6 (D140A) mutant isoform”. Moreover, the “SnRK2 kinase activity” value in the data set with GST-SnRK2.3 is “SnRK2.3 was also activated by M3Kδ6 and M3Kδ7”.

Consider M3Kδ6 kinase domain mutant (K775W), for which the “OST1/SnRK2.6 activity” value in data set [1] is “OST1/SnRK2 kinase activation was not induced by an inactive mutant M3K kinase protein, M3Kδ6 (K775W)”.

Take full-length His-M3Kδ1: the “OST1/SnRK2.6 activity” value with GST-OST1/SnRK2.6 is on record as “Full-length M3Kδ1 activates OST1/SnRK2.6 in vitro”.

The record behind these values is US20220154204.
